Experimental data taken from patent publication US20060142192A1 (ZymoGenetics, published 2006).

What was measured:
Assay in all cases: flow cytometry, biotinylated ligand + streptavidin-PE on stably transfected BHK cells
[1] = target: T1, human IL-17A (biotinylated) (human, UniProt Q16552 24-155, biotin label (sites not given))
T1 sequence (looked up): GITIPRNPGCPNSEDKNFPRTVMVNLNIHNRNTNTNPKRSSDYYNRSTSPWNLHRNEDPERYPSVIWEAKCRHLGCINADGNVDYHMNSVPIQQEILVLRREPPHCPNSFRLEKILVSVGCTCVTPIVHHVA

[2] = target: T2, human IL-17B (biotinylated) (human, UniProt Q9UHF5 21-180, biotin label (sites not given))
T2 sequence (looked up): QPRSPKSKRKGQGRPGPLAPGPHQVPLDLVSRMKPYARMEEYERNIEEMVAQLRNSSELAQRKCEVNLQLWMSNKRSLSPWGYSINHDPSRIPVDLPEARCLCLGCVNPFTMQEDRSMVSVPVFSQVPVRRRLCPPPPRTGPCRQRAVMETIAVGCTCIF

[3] = target: T3, human IL-17D (biotinylated) (human, UniProt Q8TAD2 18-202, limits assumed, biotin label (sites not given))
T3 sequence (looked up): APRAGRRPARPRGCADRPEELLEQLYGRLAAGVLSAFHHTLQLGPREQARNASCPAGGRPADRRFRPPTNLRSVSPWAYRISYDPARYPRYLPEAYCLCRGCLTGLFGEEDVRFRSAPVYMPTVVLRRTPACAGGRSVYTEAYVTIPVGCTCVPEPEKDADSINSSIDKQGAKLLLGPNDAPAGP

[4] = target: T4, human IL-17F (biotinylated) (human, UniProt Q96PD4 31-163, biotin label (sites not given))
T4 sequence (looked up): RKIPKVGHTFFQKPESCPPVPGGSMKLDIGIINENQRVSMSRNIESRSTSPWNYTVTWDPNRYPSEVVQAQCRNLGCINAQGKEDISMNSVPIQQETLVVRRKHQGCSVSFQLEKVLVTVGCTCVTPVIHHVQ

Measured: binding result

B1: human ZcytoR21x3 (receptor)
chain: AGIGFRHLPHWNTRCPLASHTVFNGASSTSWCRNPKSLPHSSSIGDTRCQHLLRGSCCLVVTCLRRAITFPSPPQTSPTRDFALKGPNLRIQRHGKVFPDWTHKGPEFSFDLLPEARAIRVTISSGPEVSVRLCHQWALECEELSSPYDVQKIVSGGHTVELPYEFLLPCLCIEASYLQEDTVRRKKCPFQSWPEAYGSDFWKSVHFTDYSQHTQMVMALTLRCPLKLEAALCQRHDWHTLCKDLPNATARESDGWYVLEKVDLHPQLCFKFSFGNSSHVECPHQTGITEARDWPSHIQVSCSPGVPIREPQTSNCLWFVRNEATQQEARGSSPVSLDLIIPFLRPGCCVLVWRSDVQFAWKHLLCPDVSYRHLGLLILALLALLTLLGVVLALTCRRPQSGPGPARPVLLLHAADSEAQRRLVGALAELLRAALGGGRDVIVDLWEGRHVARVGPLPWLWAARTRVAREQGTVLLLWSGADLRPVSGPDPRAAPLLALLHAAPRPLLLLAYFSRLCAKGDIPPPLRALPRYRLLRDLPRLLRALDARPFAEATSWGRLGARQRRQSRLELCSRLEREAARLADLG
notes: also called hcytor21x3
no binding: all assays above
